Measurements taken from publication doi:10.1101/2022.08.20.504624 (bioRxiv, 2022).

B1: Chlamydomonas IFT74_(128-C) (domain or fragment, Chlamydomonas reinhardtii, UniProt Q6RCE1 128-641, looked up)
chain: GVGRQVLDKNYFMNELRQKRMEIAQVTSNMKSDLEALERKQAQYNSMDKRASDLSKEVKILQEALADYNTVLDKVGSQAPVYVIQQEFAALKDRNEQQRKRVDEVLTERLNLESKAKQAESKMSEIQASMDQRLNSMPPSQRNEYTTLVAEQQQLQADSKRFEEVLDELDKALQASEGELARNPFKQRSLQLQEQIRALTEKKYELTEEERQSKRSPEELRADLMAKIKRDNTEVEQMTQQIRELQDQIKKMEERVKSLGGATSGAAAAEEKANREKFEELLAKERDLNNFMDGFPSRKAAKMQEKQQKEDGIVGVLEKMVKMQGIIGSNLPSQKKYKEMQDELEYKKMQLENTQTTQERLKEELTMRRTELEKIDTLEDKIKLELTQLAERQEAMEKEMGEFGSVEDIQRKANAARERMEGLRSVLLKRKDLLRSIVAERGLKFQAKRAQLQDHNLQVQLEKMEAKLKNLSAGVFEMDEFIKAKESETNYRQLASNIAALVDDLNVHVKKAVV
B2: Chlamydomonas IFT46_(188-319) (domain or fragment, Chlamydomonas reinhardtii, UniProt A2T2X4 188-319, looked up)
chain: QLRQLSKEAPGAKADMVGRLEHTDENKAKKIQQWIASINDIHKAKPAATVNYSKRMPEIEALMQEWPPEVETFLKTMHMPSGDVELDIKTYARLVCTLLDIPVYDDPVESLHVLFTLYLEFKNNPIFRQHME
B3: Chlamydomonas IFT27 (natural protein, Chlamydomonas reinhardtii)
chain: MVKKEVKPIDITATLRCKVAVVGEATVGKSALISMFTSKGSKFLKDYAMTSGVEVVVAPVTIPDTTVSVELFLLDTAGSDLYKEQISQYWNGVYYAILVFDVSSMESFESCKAWFELLKSARPDRERPLRAVLVANKTDLPPQRHQVRLDMAQDWATTNTLDFFDVSANPPGKDADAPFLSIATTFYRNYEDKVAAFQDACRNY
B4: GST-tagged CrIFT57_(1-234) (domain or fragment, Chlamydomonas reinhardtii, UniProt Q2XQY7 1-234, looked up)
chain: MSSKRGGRSSLAKAPEEAVNGEAFAPEASPPPPGDDGDAGGEDGGAPAPPPPPATKGGPVAVGRSLEIQTTPDVCMEMLADKLKLLNYEADFCRKKKPYRKPLSRLYFAVPLANSSEQFFYFTSLATWLLGLAGVELPAPKEFDDPNLTCQNILGAVKKLGFAPPSYHPTKLTVGNGKEVVGVLDGLVDFVLERRHHKYSRPAYGNDGQPEEGVQLDDEAEAAAMEGADELAMP
B5: Chlamydomonas IFT25_(1-136) (domain or fragment, Chlamydomonas reinhardtii, UniProt B8LIX8 1-136, looked up)
chain: MKDYAREENGGLVVMASCSDERFPPENMLDGKDNTFWVTTGMFPQEFVLRLESCIRVSKITTLSLNVRKLAVEKCDQDKPDQFEKVFEVELANRGDRLQTEVHQVNIRAKYLKFILLQGHGEFATVNRVSVVGGDD

What was measured:
[1] = biological target: T1, Chlamydomonas IFT81 (Chlamydomonas reinhardtii, UniProt Q68RJ5 1-683); assay: cross-linking
T1 sequence (looked up): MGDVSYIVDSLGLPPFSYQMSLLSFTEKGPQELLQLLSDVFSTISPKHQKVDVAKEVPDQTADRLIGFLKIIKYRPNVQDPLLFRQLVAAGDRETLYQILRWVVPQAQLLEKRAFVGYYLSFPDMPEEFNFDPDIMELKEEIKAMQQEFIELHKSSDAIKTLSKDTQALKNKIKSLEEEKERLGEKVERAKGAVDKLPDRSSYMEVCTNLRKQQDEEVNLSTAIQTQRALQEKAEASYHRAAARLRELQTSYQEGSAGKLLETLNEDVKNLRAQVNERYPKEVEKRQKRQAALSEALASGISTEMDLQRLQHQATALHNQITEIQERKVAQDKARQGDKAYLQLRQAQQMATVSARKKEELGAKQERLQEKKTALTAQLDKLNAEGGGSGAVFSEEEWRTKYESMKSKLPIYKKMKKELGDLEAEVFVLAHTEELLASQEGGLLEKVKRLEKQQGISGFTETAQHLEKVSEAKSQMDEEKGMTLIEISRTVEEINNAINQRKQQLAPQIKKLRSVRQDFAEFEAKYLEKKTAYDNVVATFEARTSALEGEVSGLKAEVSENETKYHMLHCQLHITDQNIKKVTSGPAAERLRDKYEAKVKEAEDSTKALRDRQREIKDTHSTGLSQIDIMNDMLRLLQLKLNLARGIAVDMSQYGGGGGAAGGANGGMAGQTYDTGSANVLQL

[2] = biological target: B1; assay: cross-linking
[3] = biological target: T2, Chlamydomonas IFT81/74_(128-C) heterodimer within the IFT-B1 nonamer (Chlamydomonas reinhardtii, UniProt Q68RJ5 1-683; Q6RCE1 128-641); assay: cross-linking
T2 sequence (looked up) 1: T1 sequence (looked up)
T2 sequence (looked up) 2: B1 chain

[4] = biological target: T3, CrIFT172_(1-968) (Chlamydomonas reinhardtii, UniProt Q5DM57 1-968); assay: pull-down
T3 sequence (looked up): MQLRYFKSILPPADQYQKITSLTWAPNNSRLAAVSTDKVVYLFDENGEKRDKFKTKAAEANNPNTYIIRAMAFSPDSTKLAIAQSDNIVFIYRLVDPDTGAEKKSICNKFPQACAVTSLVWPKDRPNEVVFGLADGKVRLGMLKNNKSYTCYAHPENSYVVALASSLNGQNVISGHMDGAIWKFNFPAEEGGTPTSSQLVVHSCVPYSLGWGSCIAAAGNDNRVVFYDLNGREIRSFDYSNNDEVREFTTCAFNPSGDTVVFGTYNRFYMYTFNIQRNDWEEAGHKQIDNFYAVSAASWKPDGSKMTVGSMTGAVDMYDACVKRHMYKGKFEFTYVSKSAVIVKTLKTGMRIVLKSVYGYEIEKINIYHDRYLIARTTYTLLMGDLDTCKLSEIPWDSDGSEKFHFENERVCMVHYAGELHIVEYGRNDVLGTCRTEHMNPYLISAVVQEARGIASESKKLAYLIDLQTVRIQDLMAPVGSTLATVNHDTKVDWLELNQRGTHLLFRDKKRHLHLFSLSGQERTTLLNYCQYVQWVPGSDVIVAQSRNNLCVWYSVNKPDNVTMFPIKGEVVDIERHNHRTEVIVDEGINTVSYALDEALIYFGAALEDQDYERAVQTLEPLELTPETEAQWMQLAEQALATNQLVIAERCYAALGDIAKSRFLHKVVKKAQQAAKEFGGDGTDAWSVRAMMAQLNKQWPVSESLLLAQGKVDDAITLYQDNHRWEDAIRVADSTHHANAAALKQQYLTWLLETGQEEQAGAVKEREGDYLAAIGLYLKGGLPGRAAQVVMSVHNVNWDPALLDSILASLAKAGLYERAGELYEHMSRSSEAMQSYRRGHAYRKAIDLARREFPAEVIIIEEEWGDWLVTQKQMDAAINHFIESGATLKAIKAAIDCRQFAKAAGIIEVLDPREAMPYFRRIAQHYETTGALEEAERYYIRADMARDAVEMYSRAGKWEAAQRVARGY

B1
binding result [1]: binds

B2
binding result [1]: binds
binding result [2]: binds

B3
binding result [3]: binds

B4
binding result [4]: binds

B5
binding result [3]: binds
